Values joined by “and” are separate entries in the source; they are usually repeats but may differ in a detail not shown here. Equal entries are not always repeated. Where two headings read alike, the source gives them in different places. Values belong to the substance of their own block, whether it stands above or below them.
What was measured:
[1] = biological target: His6-PEX19-WT (1–299 aa), non-farnesylated (human) (UniProt P40855); assay: cross-linking; UV crosslinking from Bpa at L264 of PEX26; purified PEX19·PEX26^Bpa complex chased with SGTA instead of CaM
[2] = biological target: His6-PEX19-αd4A (F125A, L129A, L133A, L136A), non-farnesylated (human) (UniProt P40855); assay: as above
[3] = biological target: His6-PEX19-WT (1–299 aa), non-farnesylated (human) (UniProt P40855); assay: cross-linking; UV crosslinking from Bpa at L264 of PEX26; purified PEX19·PEX26^Bpa complex (400 nM PEX19) chased with 20 μM CaM at room temperature in 20 mM K-HEPES pH 7.5, 150 mM CH3COOK, 1 mM Ca acetate, 1 mM DTT, 10% glycerol; frozen aliquots irradiated; anti-Strep blot; dissociation (%) = PEX26xCaM/(PEX26xPEX19 + PEX26xCaM)
PEX19-αd4A proteins = assay: as above
[4] = biological target: farnesylated PEX19-WT (PEX19-WT^F) (human) (UniProt P40855); assay: as above
PEX19-WT proteins = assay: as above
[5] = biological target: His6-PEX19-αd4A (F125A, L129A, L133A, L136A), non-farnesylated (human) (UniProt P40855); assay: as above
[6] = biological target: 2×Strep-SUMO-PEX26 (237-305aa) (UniProt Q7Z412)
2×Strep-SUMO-PEX26 (237-305aa), sequence (Q7Z412 237-305): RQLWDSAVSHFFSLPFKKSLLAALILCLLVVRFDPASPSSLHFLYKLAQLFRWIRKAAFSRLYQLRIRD

[7] = biological target: PEX3 cytosolic domain (Homo sapiens) (UniProt P56589); details: cited from earlier work
PEX3 cytosolic domain (Homo sapiens), sequence (P56589 41-373): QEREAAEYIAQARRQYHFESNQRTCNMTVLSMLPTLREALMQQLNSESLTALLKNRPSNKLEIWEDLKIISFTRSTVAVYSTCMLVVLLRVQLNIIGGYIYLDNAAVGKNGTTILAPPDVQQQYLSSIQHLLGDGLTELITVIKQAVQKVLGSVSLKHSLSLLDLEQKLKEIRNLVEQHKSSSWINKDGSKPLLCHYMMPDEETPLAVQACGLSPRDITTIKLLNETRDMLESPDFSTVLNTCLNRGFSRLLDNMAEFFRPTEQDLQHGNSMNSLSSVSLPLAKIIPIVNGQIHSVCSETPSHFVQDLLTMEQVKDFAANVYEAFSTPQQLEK

[8] = biological target: PEX3 cytosolic domain (Homo sapiens) (UniProt P56589); details: cited from earlier work; remark: listed apart in the source

PEX19 αa peptide, sequence (P40855 14-33): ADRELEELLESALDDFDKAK
His6-PEX19-WT (1–299 aa), non-farnesylated, sequence (P40855 whole entry, the tested form may be a part): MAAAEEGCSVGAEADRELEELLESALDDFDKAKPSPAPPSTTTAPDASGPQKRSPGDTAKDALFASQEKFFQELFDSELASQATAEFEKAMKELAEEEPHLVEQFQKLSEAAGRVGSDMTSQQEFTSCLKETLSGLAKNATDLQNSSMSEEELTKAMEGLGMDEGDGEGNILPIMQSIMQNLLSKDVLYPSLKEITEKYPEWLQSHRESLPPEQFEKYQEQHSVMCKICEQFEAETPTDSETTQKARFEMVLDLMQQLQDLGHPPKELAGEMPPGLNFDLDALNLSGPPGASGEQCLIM
farnesylated PEX19-WT (PEX19-WT^F), sequence (P40855 whole entry): as the sequence (P40855 whole entry, the tested form may be a part) above
PEX19, sequence (P40855 2-296): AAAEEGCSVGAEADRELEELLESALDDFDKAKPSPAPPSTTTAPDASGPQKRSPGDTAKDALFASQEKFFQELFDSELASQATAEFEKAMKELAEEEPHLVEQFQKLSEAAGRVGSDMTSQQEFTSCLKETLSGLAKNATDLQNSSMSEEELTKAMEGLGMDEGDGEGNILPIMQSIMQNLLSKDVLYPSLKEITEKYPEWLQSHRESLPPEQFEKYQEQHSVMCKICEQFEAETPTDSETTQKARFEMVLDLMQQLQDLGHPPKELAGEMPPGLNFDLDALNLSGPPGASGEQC

Substance: PEX19 (from UniProt P40855)
- Kd [7]: 3.4 nM

Substance: PEX19 αa peptide (from UniProt P40855)
- Kd [8]: 40.8 nM

Substance: farnesylated PEX19-WT (PEX19-WT^F) (from UniProt P40855 1-299) (natural protein)
- turbidity assay (OD360): concentration of PEX19 for half-maximal solubilization of 1.5 μM PEX26 (K soluble) [6]: 0.72 µM

The remaining lines, values ahead:

- PEX26 dissociation (%) within 80 min of SGTA chase [1]: < 4%
- PEX26 dissociation (%) within 10 min of SGTA chase [2]: > 40%
- PEX26 dissociation (%) within 20 min of SGTA chase [2]: 50%
- PEX26 dissociation (%) within 10 min of CaM chase [3]: 16%
- time to release ∼20% of PEX26 to CaM [3]: 30 min and 40 min
- PEX26 dissociation (%) within 5 min of CaM chase (PEX19-αd4A proteins): 60% and 80%
- time to release ∼20% of PEX26 to CaM [4]: 240 min
- PEX26 dissociation (%) within 4 h of CaM chase (PEX19-WT proteins): 20% and 30%
- PEX26 dissociation (%) within 10 min of CaM chase [5]: 70%
Substance: 2×Strep-SUMO-PEX26^Bpa (L264^Bpa) (from UniProt Q7Z412 237-305) (domain or fragment)

- turbidity assay (OD360): concentration of PEX19 for half-maximal solubilization of 1.5 μM PEX26 (K soluble) [6]: 1.71 µM
Substance: His6-PEX19-WT (1–299 aa), non-farnesylated (from UniProt P40855 1-299) (natural protein)

From PMC10995880
